Test results taken from US20100068766A1, “COMPOSITION FOR CLEAVING AND/OR CONNECTING SINGLE STRAND DNA” (WASEDA UNIVERSITY, priority 2007, published 2010).

B1: Ev1 protein: human Ev1 protein (NCBI accession No. AAF21709), recombinant from E. coli, His tag removed (protein)
chain: MATSEQSICQARASVMVYDDTSKKWVPIKPGQQGFSRINIYHNTASNTFRVVGVKLQDQQVVINYSIVKGLKYNQATPTFHQWRDARQVYGLNFASKEEATTFSNAMLFALNIMNSQEGGPSSQRQVQNGPSPDEMDIQRRQVMEQHQQQRQESLERRTSATGPILPPGHPSSAASAPVSCSGPPPPPPPPVPPPPTGATPPPPPPLPAGGAQGSSHDESSMSGLAAAIAGAKLRRVQRPEDASGGSSPSGTSKSDANRASSGGGGGGLMEEMNKLLAKRRKAASQSDKPAEKKEDESQMEDPSTSPSPGTRAASQPPNSSEAGRKPWERSNSVEKPVSSILSRTPSVAKSPEAKSPLQSQPHSRMKPAGSVNDMALDAFDLDRMKQEILEEVVRELHKVKEEIIDAIRQELSGISTT
B2: Ev1 (1-221) mutant: Ev1 fragment of amino acid residues 1-221, comprises EVH1 and a proline-rich domain (protein, UniProt Q9UI08 1-221, looked up, fragment)
chain: MSEQSICQARASVMVYDDTSKKWVPIKPGQQGFSRINIYHNTASNTFRVVGVKLQDQQVVINYSIVKGLKYNQATPTFHQWRDARQVYGLNFASKEEATTFSNAMLFALNIMNSQEGGPSSQRQVQNGPSPDEMDIQRRQVMEQHQQQRQESLERRTSATGPILPPGHPSSAASAPVSCSGPPPPPPPPVPPPPTGATPPPPPPLPAGGAQGSSHDESSMS

Legend:
[1] = tested on: φ×174 or M13 mp18 circular single-stranded DNA; experiment: Assay of catenation of single-stranded DNA; type: biochemical; details: 4 μM protein; 20 μM circular single-stranded DNA; 1 mM MgCl2; 37° C.
Protocol: (§1) A φ×174 or M13 mp18 circular single-stranded DNA (20 μM) was incubated at 37° C. in 20 mM HEPES-NaOH (pH 7.5), 1 mM DTT, 1 mM MgCl2, and 0.1 mg/ml BSA. Thereafter, the sample was subjected to a deproteination treatment with 0.2% SDS and 1.3 mg/ml proteinase K. The obtained product was separated by 0.9% agarose gel electrophoresis, and a DNA band was then stained with SYBR Gold (Invitrogen).

[2] = molecular target: T1, Rad51B protein / Ev1 protein (Homo sapiens, UniProt O15315+Q9UI08); experiment: Pull-down assay using Ev1- or Rad51B-bound beads; type: binding; details: Affi-Gel 10 beads, 10 μg protein, room temperature, 150 minutes
T1 construct: in accordance with the protocols used in purification of the entire-length Ev1 protein; 6xHis (N, cleaved yes); made in house; host or cells: Ev1: E. coli BL21 (DE3) codon plus-RP
T1 sequence (Q9UI08 1-418 isoform Q9UI08-2): B1 chain
T1 sequence (O15315 1-350 isoform O15315-1): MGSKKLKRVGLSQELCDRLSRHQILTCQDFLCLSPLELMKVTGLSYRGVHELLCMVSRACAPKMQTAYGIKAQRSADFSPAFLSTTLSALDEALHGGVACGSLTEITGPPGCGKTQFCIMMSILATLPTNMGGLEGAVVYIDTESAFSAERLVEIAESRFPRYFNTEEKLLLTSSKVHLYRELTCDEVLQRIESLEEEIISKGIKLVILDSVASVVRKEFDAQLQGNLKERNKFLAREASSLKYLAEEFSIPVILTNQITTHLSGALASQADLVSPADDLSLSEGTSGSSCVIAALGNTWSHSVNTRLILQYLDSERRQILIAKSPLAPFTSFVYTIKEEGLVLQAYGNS
Protocol: Thereafter, the obtained mixture was incubated at 4° C. overnight. The Affi-Gel 10-Ev1 beads were washed 3 times with 500 μl of washing buffer 1 (20 mM potassium phosphate (pH 8.5), 30% glycerol, 700 mM NaCl, 5 mM 2-mercaptoethanol, and 0.05% Triton X-100). The Affi-Gel 10-Rad51B beads were washed 3 times with washing buffer 2 (20 mM HEPES-NaOH (pH 7.3), 30% glycerol, 90 mM NaCl, 2 mM 2-mercaptoethanol, 0.1% Triton X-100, 2 mM ammonium sulfate, and 0.1 mM EDTA). Thereafter, a 50% suspension of such Affi-Gel 10-protein was prepared, and it was then preserved at 4° C.
In order to carry out a binding assay, an Affi-Gel 10-protein suspension (30 μl) was incubated with 10 μg of an Ev1 or Rad51B protein at room temperature for 150 minutes. Affi-Gel 10-Ev1 beads were washed 4 times with 100 μl of buffer 1 (20 mM potassium phosphate (pH 8.5), 30% glycerol, 700 mM NaCl, 5 mM 2-mercaptoethanol, and 0.3% Triton X-100). Affi-Gel 10-Rad51B beads were washed 4 times with 100 μl of buffer 2 (20 mM HEPES-NaOH (pH 7.3), 30% glycerol, 90 mM NaCl, 2 mM 2-mercaptoethanol, 2 mM ammonium sulfate, 0.1 mM EDTA, and 0.35% Triton X-100). An SDS-PAGE sample treatment buffer (2×) was directly mixed with the washed beads, and the obtained mixture was then subjected to a heat treatment at 100° C. for 2 minutes. […]

[3] = tested on: φ×174 supercoiled double-stranded DNA; experiment: DNA binding assay (double-stranded DNA); details: Ev1 0.2-3.2 μM; 10 μM φ×174 supercoiled double-stranded DNA; 37° C., 15 minutes
Protocol: (§2) Subsequently, the binding ability of the Ev1 protein to DNA was analyzed. The Ev1 protein was mixed with a φ×174 circular single-stranded DNA (40 μM) or a φ×174 supercoiled double-stranded DNA (10 μM) in 10 μl of a reaction solution (20 mM HEPES (pH 7.5), 1 mM DTT, 1 mM MgCl2, and 100 mg/ml BSA), and the mixture was then reacted at 37° C. for 15 minutes. The reaction product was analyzed by 0.8% agarose gel electrophoresis (3 V/cm, 3 hours) using a 1×TAE (40 mM Tris-acetate and 1 mM EDTA) buffer. A band of DNA was stained with ethidium bromide (FIG. 3).

[4] = tested on: φ×174 supercoiled double-stranded DNA; experiment: Activity of Ev1 on supercoiled double-stranded DNA; type: biochemical; details: 4 μM Ev1; 10 μM φ×174 supercoiled and nicked double-stranded DNA
Protocol: Lanes 1 and 2 indicate the results obtained using a φ×174 circular single-stranded DNA. Lanes 3 and 4 indicate the results obtained using a M13 mp18 circular single-stranded DNA. In addition, lanes 1 and 3 indicate the results of control experiments in which no Ev1 protein was used, and lanes 2 and 4 indicate the results of experiments in which the Ev1 protein was used. […] A φ×174 circular single-stranded DNA (20 μM, lanes 1-3), or φ×174 supercoiled and nicked double-stranded DNA molecules (10 μM, lanes 4-6) were used to examine the influence of Ev1 (4 μM, lanes 2 and 5) and Escherichia coli-derived topoisomerase type I (5 units, lanes 3 and 6). Lanes 1 and 4 indicate the results of control experiments in which no Ev1 protein was used.
as §1

[5] = tested on: φ×174 circular single-stranded DNA; experiment: DNA binding assay (single-stranded DNA); details: Ev1 0.2-3.2 μM; 40 μM φ×174 circular single-stranded DNA; 37° C., 15 minutes
Protocol: as §2

Ev1 protein = experiment: Influence of Rad51B or Rad51 on catenation of single-stranded DNA by the Ev1 protein; type: biochemical; details: 4 μM Ev1 mutant plus 4 μM Rad51B protein
Protocol: Lanes 1 and 5 indicate the results of control experiments in which neither the Ev1 nor the Rad51B protein was used. Lanes 2 and 6 indicate the results of experiments that were carried out using a 4 μM Rad51B protein in the absence of the Ev1 protein. Lanes 3 and 7 indicate the results of experiments that were carried out using a 4 μM Ev1 protein in the absence of the Rad51B protein. Lanes 4 and 8 indicate the results of experiments that were carried out using a 4 μM Ev1 protein and a 4 μM Rad51B protein. Further, lanes 1-4 indicate the results of experiments that were carried out in the presence of ATP, and lanes 5-8 indicate the results of experiments that were carried out in the absence of ATP. […] Lanes 1 and 5 indicate the results of control experiments in which neither the Ev1 nor the Rad51 protein was used. Lanes 2 and 6 indicate the results of experiments that were carried out using a 4 μM Rad51 protein in the absence of the Ev1 protein. Lanes 3 and 7 indicate the results of experiments that were carried out using a 4 μM Ev1 protein in the absence of the Rad51 protein. Lanes 4 and 8 indicate the results of experiments that were carried out using a 4 μM Ev1 protein and a 4 μM Rad51 protein. Further, lanes 1-4 indicate the results of experiments that were carried out in the presence of ATP, and lanes 5-8 indicate the results of experiments that were carried out in the absence of ATP.
The Rad51B protein was mixed in a concentration of 0.5 to 8 μM with a 4 μM Ev1 protein, and the activity was then measured. Lane 1 indicates the results of a control experiment in which neither the Rad51B protein nor the Ev1 protein was added, and lane 8 indicates the results of a control experiment in which a 8 μM Rad51B protein was added and no Ev1 protein was added. Lanes 2-7 indicate the results of experiments in which the Rad51B protein was added in concentrations of 0 μM, 0.5 μM, 1.0 μM, 2.0 μM, 4.0 μM, and 8.0 μM, respectively, in the presence of 4 μM Ev1.
as §1

Row | Molecule | ssDNA catenation activity (multimer formation of circular single-stranded DNA) [1] | binding of Ev1 protein to Rad51B (pull-down) [2] | binding to supercoiled double-stranded DNA [3] | change of supercoiled double-stranded DNA [4] | binding to single-stranded DNA [5] | ssDNA catenation activity with Rad51B protein added (Ev1 protein)
1 | B1 | the circular single-stranded DNA formed a multimer | directly binds to Rad51B | efficiently binds | the supercoiled double-stranded DNA was not particularly changed | efficiently binds | 
2 | B2 | did not exhibit such ssDNA catenation activity |  |  |  |  | no activity was detected
